Assay results taken from the supplement of paper PMC11246515.
± gives the standard deviation of the averaged measurements.

Assay: total protein half-life in vivo (active degradation + dilution); higher = more stable protein
[1] = E. coli NCM3722 delta-clpP delta-lon delta-hslV, growth: N-lim chemostat, doubling time 6 h
[2] = E. coli NCM3722 delta-clpP, growth: N-lim chemostat, doubling time 6 h
[3] = E. coli NCM3722 delta-hslV, growth: N-lim chemostat, doubling time 6 h
[4] = E. coli NCM3722 delta-lon, growth: N-lim chemostat, doubling time 6 h
[5] = E. coli NCM3722 delta-smpB, growth: N-lim chemostat, doubling time 6 h
[6] = wild type E. coli NCM3722, growth: C-lim chemostat, doubling time 3 h
[7] = wild type E. coli NCM3722, growth: C-lim chemostat, doubling time 6 h
[8] = wild type E. coli NCM3722, growth: C-lim chemostat, doubling time 12 h
[9] = wild type E. coli NCM3722, growth: N-lim chemostat, doubling time 6 h
[10] = wild type E. coli NCM3722, growth: N-lim chemostat, doubling time 12 h
[11] = wild type E. coli NCM3722, growth: P-lim chemostat, doubling time 6 h
[12] = wild type E. coli NCM3722, growth: P-lim chemostat, doubling time 12 h

Sequence | total protein half-life in vivo [1] [h] | total protein half-life in vivo [2] [h] | total protein half-life in vivo [3] [h] | total protein half-life in vivo [4] [h] | total protein half-life in vivo [5] [h] | total protein half-life in vivo [6] [h] | total protein half-life in vivo [7] [h] | total protein half-life in vivo [8] [h] | total protein half-life in vivo [9] [h] | total protein half-life in vivo [10] [h] | total protein half-life in vivo [11] [h] | total protein half-life in vivo [12] [h]
MKPSSSNSRSKGHAKARRKTREELDQEARDRKRQKKRRGHAPGSRAAGGNTTSGSKGQNAPKDPRIGSKTPIPLGVTEKVTKQHKPKSEKPMLSPQAELELLETDERLDALLERLEAGETLSAEEQSWVDAKLDRIDELMQKLGLSYDDDEEEEEDEKQEDMMRLLRGN [P0A8H6] | 5.38 ± 0.29 | 5.18 ± 0.7 | 4.08 ± 0.55 | 3.93 ± 0.22 | 4.09 ± 1.7 | 2.52 ± 0.0028 | 4.36 ± 0.45 | 7.24 ± 1.8 | 3.59 ± 0.17 | 5.58 ± 1 | 2.98 | 5.38 ± 0.71
MMKTVKHLLCCAIAASALISTGVHAASWKDALSSAASELGNQNSTTQEGGWSLASLTNLLSSGNQALSADNMNNAAGILQYCAKQKLASVTDAENIKNQVLEKLGLNSEEQKEDTNYLDGIQGLLKTKDGQQLNLDNIGTTPLAEKVKTKACDLVLKQGLNFIS | 2.77 ± 0.018 | 2.37 | 2.68 | 3.02 ± 0.12 | 2.56 ± 0.057 | 2.22 ± 0.24 | 3.873 ± 0.035 | 3.5 | 2.1 | – | 3.43 | 3.72 ± 0.56
MLAKRIIPCLDVRDGQVVKGVQFRNHEIIGDIVPLAKRYAEEGADELVFYDITASSDGRVVDKSWVSRVAEVIDIPFCVAGGIKSLEDAAKILSFGADKISINSPALADPTLITRLADRFGVQCIVVGIDTWYDAETGKYHVNQYTGDESRTRVTQWETLDWVQEVQKRGAGEIVLNMMNQDGVRNGYDLEQLKKVREVCHVPLIASGGAGTMEHFLEAFRDADVDGALAASVFHKQIINIGELKAYLATQGVEIRIC | 4.98 ± 0.68 | 4.15 ± 0.38 | 4.45 ± 0.13 | 4.83 ± 0.12 | 4.317 ± 0.0095 | 2.97 ± 0.2 | 5.53 ± 0.17 | 9.44 ± 0.28 | 4.34 ± 0.0084 | 7.26 ± 0.56 | 5.64 ± 0.13 | 11.6 ± 0.42
MNQNLLVTKRDGSTERINLDKIHRVLDWAAEGLHNVSISQVELRSHIQFYDGIKTSDIHETIIKAAADLISRDAPDYQYLAARLAIFHLRKKAYGQFEPPALYDHVVKMVEMGKYDNHLLEDYTEEEFKQMDTFIDHDRDMTFSYAAVKQLEGKYLVQNRVTGEIYESAQFLYILVAACLFSNYPRETRLQYVKRFYDAVSTFKISLPTPIMSGVRTPTRQFSSCVLIECGDSLDSINATSSAIVKYVSQRAGIGINAGRIRALGSPIRGGEAFHTGCIPFYKHFQTAVKSCSQGGVRGGAATLFYPMWHLEVESLLVLKNNRGVEGNRVRHMDYGVQINKLMYTRLLKGEDITLFSPSDVPGLYDAFFADQEEFERLYTKYEKDDSIRKQRVKAVELFSLMMQERASTGRIYIQNVDHCNTHSPFDPAIAPVRQSNLCLEIALPTKPLNDVNDENGEIALCTLSAFNLGAINNLDELEELAILAVRALDALLDYQDYPIPAAKRGAMGRRTLGIGVINFAYYLAKHGKRYSDGSANNLTHKTFEAIQYYLLKASNELAKEQGACPWFNETTYAKGILPIDTYKKDLDTIANEPLHYDWEALRESIKTHGLRNSTLSALMPSETSSQISNATNGIEPPRGYVSIKASKDGILRQVVPDYEHLHDAYELLWEMPGNDGYLQLVGIMQKFIDQSISANTNYDPSRFPSGKVPMQQLLKDLLTAYKFGVKTLYYQNTRDGAEDAQDDLVPSIQDDGCESGACKI | 4.05 ± 0.63 | 3.93 ± 0.074 | 4.03 ± 0.099 | 4.24 ± 0.14 | 3.67 ± 0.52 | 3.07 ± 0.15 | 4.91 ± 0.43 | 9.24 ± 1.7 | 3.85 ± 0.23 | 5.89 ± 0.22 | 5.93 ± 0.08 | 11.1 ± 0.48
MSDRIDRDVINALIAGHFADPFSVLGMHKTTAGLEVRALLPDATDVWVIEPKTGRKLAKLECLDSRGFFSGVIPRRKNFFRYQLAVVWHGQQNLIDDPYRFGPLIQEMDAWLLSEGTHLRPYETLGAHADTMDGVTGTRFSVWAPNARRVSVVGQFNYWDGRRHPMRLRKESGIWELFIPGAHNGQLYKYEMIDANGNLRLKSDPYAFEAQMRPETASLICGLPEKVVQTEERKKANQFDAPISIYEVHLGSWRRHTDNNFWLSYRELADQLVPYAKWMGFTHLELLPINEHPFDGSWGYQPTGLYAPTRRFGTRDDFRYFIDAAHAAGLNVILDWVPGHFPTDDFALAEFDGTNLYEHSDPREGYHQDWNTLIYNYGRREVSNFLVGNALYWIERFGIDALRVDAVASMIYRDYSRKEGEWIPNEFGGRENLEAIEFLRNTNRILGEQVSGAVTMAEESTDFPGVSRPQDMGGLGFWYKWNLGWMHDTLDYMKLDPVYRQYHHDKLTFGILYNYTENFVLPLSHDEVVHGKKSILDRMPGDAWQKFANLRAYYGWMWAFPGKKLLFMGNEFAQGREWNHDASLDWHLLEGGDNWHHGVQRLVRDLNLTYRHHKAMHELDFDPYGFEWLVVDDKERSVLIFVRRDKEGNEIIVASNFTPVPRHDYRFGINQPGKWREILNTDSMHYHGSNAGNGGTVHSDEIASHGRQHSLSLTLPPLATIWLVREAE | 6.52 ± 0.61 | 5.72 ± 0.24 | 6.65 ± 0.44 | 6.1 ± 0.46 | 6.35 ± 0.16 | 2.98 ± 0.15 | 6.06 ± 0.42 | 13.2 ± 0.43 | 5.95 ± 0.2 | 12.2 ± 2.1 | 6.35 ± 0.33 | 12.1 ± 1.9
